Reference: patent US20200157174A1 (DRAGONFLY THERAPEUTICS, published 2020)

What was measured:
Experiment in all cases: ELISA on coated NKG2D-Fc;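 also: titrated NKG2D-binding domains on plate-bound human, mouse or cynomolgus NKG2D ectodomain–human IgG1 Fc fusions, detected with HRP anti-human kappa secondary and TMB, absorbance at 450 nm corrected at 540 nm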
[1] = target: T1, recombinant mouse NKG2D-Fc (mouse; human, UniProt O54709 90-232)
T1 construct: extracellular domain; also called mouse NKG2D-Fc fusion protein; Mouse NKG2D-Fc-biotin; not shown: human IgG1 Fc domain
T1 sequence (looked up): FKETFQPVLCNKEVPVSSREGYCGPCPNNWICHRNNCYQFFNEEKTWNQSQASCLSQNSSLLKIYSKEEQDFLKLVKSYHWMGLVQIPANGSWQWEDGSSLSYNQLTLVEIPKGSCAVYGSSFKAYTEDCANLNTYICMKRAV

[2] = target: T2, recombinant cynomolgus NKG2D-Fc (cynomolgus; human, UniProt P61252 73-216)
T2 construct: extracellular domain; also called cynomolgus NKG2D-Fc fusion protein; not shown: human IgG1 Fc domain
T2 sequence (looked up): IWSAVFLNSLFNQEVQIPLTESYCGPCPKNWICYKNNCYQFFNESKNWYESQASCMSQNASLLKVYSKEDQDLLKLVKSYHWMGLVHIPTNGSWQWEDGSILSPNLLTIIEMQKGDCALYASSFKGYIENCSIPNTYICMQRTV

[3] = target: T3, recombinant human NKG2D-Fc (human, UniProt P26718 73-216)
T3 construct: extracellular domain; also called human NKG2D-Fc fusion protein; NKG2D-Fc-biotin; not shown: human IgG1 Fc domain
T3 sequence (looked up): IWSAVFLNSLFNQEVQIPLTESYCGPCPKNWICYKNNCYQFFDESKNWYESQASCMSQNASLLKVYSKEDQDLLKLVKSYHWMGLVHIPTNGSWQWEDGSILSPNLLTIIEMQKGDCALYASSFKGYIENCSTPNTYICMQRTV

Measured: binding result

B1: ADI-27705 (antibody, V domains shown)
VH: QVQLQQWGAGLLKPSETLSLTCAVYGGSFSGYYWSWIRQPPGKGLEWIGEIDHSGSTNYNPSLKSRVTISVDTSKNQFSLKLSSVTAADTAVYYCARARGPWSFDPWGQGTLVTVSS
VL: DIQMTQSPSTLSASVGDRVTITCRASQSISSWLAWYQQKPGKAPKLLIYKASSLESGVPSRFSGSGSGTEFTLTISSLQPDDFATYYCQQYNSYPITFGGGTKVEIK
binds: [1] | [2] | [3]

B2: ADI-28226 (antibody, V domains shown)
VH: QVQLQQWGAGLLKPSETLSLTCAVYGGSFSGYYWSWIRQPPGKGLEWIGEIDHSGSTNYNPSLKSRVTISVDTSKNQFSLKLSSVTAADTAVYYCARARGPWSFDPWGQGTLVTVSS
VL: DIQMTQSPSTLSASVGDRVTITCRASQSISSWLAWYQQKPGKAPKLLIYKASSLESGVPSRFSGSGSGTEFTLTISSLQPDDFATYYCQQYGSFPITFGGGTKVEIK
notes: also called C26
binds: [1] | [2] | [3]

B3: ADI-29429 (antibody, V domains shown)
VH: QVQLQQWGAGLLKPSETLSLTCAVYGGSFSGYYWSWIRQPPGKGLEWIGEIDHSGSTNYNPSLKSRVTISVDTSKNQFSLKLSSVTAADTAVYYCARARGPWSFDPWGQGTLVTVSS
VL: DIQMTQSPSTLSASVGDRVTITCRASQSIGSWLAWYQQKPGKAPKLLIYKASSLESGVPSRFSGSGSGTEFTLTISSLQPDDFATYYCQQYELYSYTFGGGTKVEIK
binds: [1] | [2] | [3]

B4: ADI-29403 (antibody, V domains shown)
VH: QVQLQQWGAGLLKPSETLSLTCAVYGGSFSGYYWSWIRQPPGKGLEWIGEIDHSGSTNYNPSLKSRVTISVDTSKNQFSLKLSSVTAADTAVYYCARARGPWSFDPWGQGTLVTVSS
VL: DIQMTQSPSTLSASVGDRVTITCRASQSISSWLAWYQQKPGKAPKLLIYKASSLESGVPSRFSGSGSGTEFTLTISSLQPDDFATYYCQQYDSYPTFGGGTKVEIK
binds: [1] | [2] | [3]

B5: ADI-27740 (antibody, V domains shown)
VH: QVQLQQWGAGLLKPSETLSLTCAVYGGSFSGYYWSWIRQPPGKGLEWIGEIDHSGSTNYNPSLKSRVTISVDTSKNQFSLKLSSVTAADTAVYYCARARGPWSFDPWGQGTLVTVSS
VL: DIQMTQSPSTLSASVGDRVTITCRASQSIGSWLAWYQQKPGKAPKLLIYKASSLESGVPSRFSGSGSGTEFTLTISSLQPDDFATYYCQQYHSFYTFGGGTKVEIK
notes: also called A40
binds: [1] | [2] | [3]

B6: ADI-27741 (antibody, V domains shown)
VH: QVQLQQWGAGLLKPSETLSLTCAVYGGSFSGYYWSWIRQPPGKGLEWIGEIDHSGSTNYNPSLKSRVTISVDTSKNQFSLKLSSVTAADTAVYYCARARGPWSFDPWGQGTLVTVSS
VL: DIQMTQSPSTLSASVGDRVTITCRASQSIGSWLAWYQQKPGKAPKLLIYKASSLESGVPSRFSGSGSGTEFTLTISSLQPDDFATYYCQQSNSYYTFGGGTKVEIK
binds: [1] | [2] | [3]

B7: ADI-27743 (antibody, V domains shown)
VH: QVQLQQWGAGLLKPSETLSLTCAVYGGSFSGYYWSWIRQPPGKGLEWIGEIDHSGSTNYNPSLKSRVTISVDTSKNQFSLKLSSVTAADTAVYYCARARGPWSFDPWGQGTLVTVSS
VL: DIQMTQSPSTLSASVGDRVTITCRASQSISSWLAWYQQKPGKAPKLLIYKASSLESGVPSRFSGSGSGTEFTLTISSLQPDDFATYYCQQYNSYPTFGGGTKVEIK
binds: [1] | [2] | [3]

B8: ADI-29399 (antibody, V domains shown)
VH: QVQLQQWGAGLLKPSETLSLTCAVYGGSFSGYYWSWIRQPPGKGLEWIGEIDHSGSTNYNPSLKSRVTISVDTSKNQFSLKLSSVTAADTAVYYCARARGPWSFDPWGQGTLVTVSS
VL: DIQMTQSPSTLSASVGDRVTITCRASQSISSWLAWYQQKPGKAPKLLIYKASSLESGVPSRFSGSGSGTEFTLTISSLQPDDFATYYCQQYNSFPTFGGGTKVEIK
binds: [1] | [2] | [3]

B9: ADI-29401 (antibody, V domains shown)
VH: QVQLQQWGAGLLKPSETLSLTCAVYGGSFSGYYWSWIRQPPGKGLEWIGEIDHSGSTNYNPSLKSRVTISVDTSKNQFSLKLSSVTAADTAVYYCARARGPWSFDPWGQGTLVTVSS
VL: DIQMTQSPSTLSASVGDRVTITCRASQSIGSWLAWYQQKPGKAPKLLIYKASSLESGVPSRFSGSGSGTEFTLTISSLQPDDFATYYCQQYDIYPTFGGGTKVEIK
binds: [1] | [2] | [3]

B10: ADI-29404 (antibody, V domains shown)
VH: QVQLQQWGAGLLKPSETLSLTCAVYGGSFSGYYWSWIRQPPGKGLEWIGEIDHSGSTNYNPSLKSRVTISVDTSKNQFSLKLSSVTAADTAVYYCARARGPWSFDPWGQGTLVTVSS
VL: DIQMTQSPSTLSASVGDRVTITCRASQSISSWLAWYQQKPGKAPKLLIYKASSLESGVPSRFSGSGSGTEFTLTISSLQPDDFATYYCEQYDSYPTFGGGTKVEIK
notes: also called F04
binds: [1] | [2] | [3]

B11: ADI-29405 (antibody, V domains shown)
VH: QVQLQQWGAGLLKPSETLSLTCAVYGGSFSGYYWSWIRQPPGKGLEWIGEIDHSGSTNYNPSLKSRVTISVDTSKNQFSLKLSSVTAADTAVYYCARARGPWSFDPWGQGTLVTVSS
VL: DIQMTQSPSTLSASVGDRVTITCRASQSISSWLAWYQQKPGKAPKLLIYKASSLESGVPSRFSGSGSGTEFTLTISSLQPDDFATYYCQQYGSFPTFGGGTKVEIK
binds: [1] | [2] | [3]

B12: ADI-29407 (antibody, V domains shown)
VH: QVQLQQWGAGLLKPSETLSLTCAVYGGSFSGYYWSWIRQPPGKGLEWIGEIDHSGSTNYNPSLKSRVTISVDTSKNQFSLKLSSVTAADTAVYYCARARGPWSFDPWGQGTLVTVSS
VL: DIQMTQSPSTLSASVGDRVTITCRASQSISSWLAWYQQKPGKAPKLLIYKASSLESGVPSRFSGSGSGTEFTLTISSLQPDDFATYYCQQYQSFPTFGGGTKVEIK
binds: [1] | [2] | [3]

B13: ADI-29419 (antibody, V domains shown)
VH: QVQLQQWGAGLLKPSETLSLTCAVYGGSFSGYYWSWIRQPPGKGLEWIGEIDHSGSTNYNPSLKSRVTISVDTSKNQFSLKLSSVTAADTAVYYCARARGPWSFDPWGQGTLVTVSS
VL: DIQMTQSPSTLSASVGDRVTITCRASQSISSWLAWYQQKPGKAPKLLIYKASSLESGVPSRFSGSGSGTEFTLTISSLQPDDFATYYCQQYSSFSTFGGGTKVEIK
binds: [1] | [2] | [3]

B14: ADI-29421 (antibody, V domains shown)
VH: QVQLQQWGAGLLKPSETLSLTCAVYGGSFSGYYWSWIRQPPGKGLEWIGEIDHSGSTNYNPSLKSRVTISVDTSKNQFSLKLSSVTAADTAVYYCARARGPWSFDPWGQGTLVTVSS
VL: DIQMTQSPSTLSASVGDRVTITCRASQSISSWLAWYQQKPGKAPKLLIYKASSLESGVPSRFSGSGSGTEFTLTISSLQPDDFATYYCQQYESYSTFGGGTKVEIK
binds: [1] | [2] | [3]

B15: ADI-29424 (antibody, V domains shown)
VH: QVQLQQWGAGLLKPSETLSLTCAVYGGSFSGYYWSWIRQPPGKGLEWIGEIDHSGSTNYNPSLKSRVTISVDTSKNQFSLKLSSVTAADTAVYYCARARGPWSFDPWGQGTLVTVSS
VL: DIQMTQSPSTLSASVGDRVTITCRASQSISSWLAWYQQKPGKAPKLLIYKASSLESGVPSRFSGSGSGTEFTLTISSLQPDDFATYYCQQYDSFITFGGGTKVEIK
binds: [1] | [2] | [3]

B16: ADI-29425 (antibody, V domains shown)
VH: QVQLQQWGAGLLKPSETLSLTCAVYGGSFSGYYWSWIRQPPGKGLEWIGEIDHSGSTNYNPSLKSRVTISVDTSKNQFSLKLSSVTAADTAVYYCARARGPWSFDPWGQGTLVTVSS
VL: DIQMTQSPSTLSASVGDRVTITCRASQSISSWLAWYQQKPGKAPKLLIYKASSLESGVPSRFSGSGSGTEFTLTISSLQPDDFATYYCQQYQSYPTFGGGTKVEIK
binds: [1] | [2] | [3]

B17: ADI-29426 (antibody, V domains shown)
VH: QVQLQQWGAGLLKPSETLSLTCAVYGGSFSGYYWSWIRQPPGKGLEWIGEIDHSGSTNYNPSLKSRVTISVDTSKNQFSLKLSSVTAADTAVYYCARARGPWSFDPWGQGTLVTVSS
VL: DIQMTQSPSTLSASVGDRVTITCRASQSIGSWLAWYQQKPGKAPKLLIYKASSLESGVPSRFSGSGSGTEFTLTISSLQPDDFATYYCQQYHSFPTFGGGTKVEIK
binds: [1] | [2] | [3]

B18: ADI-29447 (antibody, V domains shown)
VH: QVQLQQWGAGLLKPSETLSLTCAVYGGSFSGYYWSWIRQPPGKGLEWIGEIDHSGSTNYNPSLKSRVTISVDTSKNQFSLKLSSVTAADTAVYYCARARGPWSFDPWGQGTLVTVSS
VL: DIQMTQSPSTLSASVGDRVTITCRASQSISSWLAWYQQKPGKAPKLLIYKASSLESGVPSRFSGSGSGTEFTLTISSLQPDDFATYYCQQYDTFITFGGGTKVEIK
notes: also called F47
binds: [1] | [2] | [3]

B19: ADI-27727 (antibody, V domains shown)
VH: QVQLVQSGAEVKKPGSSVKVSCKASGGTFSSYAISWVRQAPGQGLEWMGGIIPIFGTANYAQKFQGRVTITADESTSTAYMELSSLRSEDTAVYYCARGDSSIRHAYYYYGMDVWGQGTTVTVSS
VL: not shown
binds: [1] | [2] | [3]
